The text below walks through data of patent publication US20190367592A1 (AC IMMUNE, published 2019).

In general, Kd refers to the constant that tells how readily two partners part at equilibrium.

The target of this experiment is T1, recombinant human Tau monomer, 2N4R isoform (amino acids 2-441) (human, UniProt P10636-8 2-441).
T1 construct: range 2-441; N-terminal His-tag removed with TEV protease; also called monomeric Tau
Briefly: SPR screen, hIgG captured, Tau monomer analyte. The source says: Antibody 125B11-H3 was humanized onto VH3 and Vκ1 consensus frameworks. The heavy chain graft included murine residues at position 78 (Kabat numbering system). The Vκ1 graft included murine residues in framework positions 43 and 87. The light chain of 113F5-F7 was also humanized onto the Vκ1 framework, with additional murine residues at framework positions 43 and 87. Humanized variant heavy chains (125B11) and light chains (125B11 and 113F5-F7) were co-transfected in multiple combinations and purified in 96-well format as described above. Humanized variants were then screened for affinity for human Tau monomer using the Biacore human IgG capture kit, a Series S CM5 chip and a Biacore T200 instrument. Antibodies were diluted to 2 μg/ml and captured for 15 seconds at 10 μl/min. Association and dissociation of 0, 100 and 500 nM human Tau monomer in HBSP was monitored for 180s and 300s respectively at a flow rate of 40 μl/min. A 1:1 binding model was applied to the results (Table 9).
Variants hu125B11.v17 (HC3+LC1), hu125B11.v26 (HC4+LC2) and hu125B 11.v28 (HC4+LC4) were selected for high-resolution kinetic analysis based on the affinity screen (Table 10). Antibody 94B2-C1 was humanized onto VH1 and Vx2 frameworks. The heavy chain graft also included murine residues at position 28, 29, 67, 69, 71, and 73 (Kabat numbering system). The Vκ2 graft also included murine residues in framework positions 2, 36, and 46. […] Variant hu94B2.v105 (heavy chain variant 94B2.HCl, light chain variant 94B2.LC13) was selected for detailed SPR characterization (Table 11).

T1 sequence (P10636 other isoform, or with tags, fused parts or gaps limits assumed): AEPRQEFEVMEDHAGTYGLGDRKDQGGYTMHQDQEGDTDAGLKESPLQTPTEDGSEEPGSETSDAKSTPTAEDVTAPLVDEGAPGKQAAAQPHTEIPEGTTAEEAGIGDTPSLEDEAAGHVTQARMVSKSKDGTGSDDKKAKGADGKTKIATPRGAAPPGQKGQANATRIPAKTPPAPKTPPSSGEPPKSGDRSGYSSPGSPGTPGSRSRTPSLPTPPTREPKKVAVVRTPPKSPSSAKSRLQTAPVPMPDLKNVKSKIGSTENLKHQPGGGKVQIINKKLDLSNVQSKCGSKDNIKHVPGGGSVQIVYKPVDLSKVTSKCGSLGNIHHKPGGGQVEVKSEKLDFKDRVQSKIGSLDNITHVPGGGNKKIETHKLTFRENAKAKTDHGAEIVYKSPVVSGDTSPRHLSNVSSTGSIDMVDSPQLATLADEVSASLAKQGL

B1: hu94B2 HC3 + LC11 (antibody, V domains shown)
VH: EVQLVQSGAEVKKPGASVKVSCKASGYSLTGYTMNWVRQAPGQGLEWIGLISPYNGVTSYNQKFKGRATITVDKSTSTAYLELSSLRSEDTAVYYCARQGAYWGQGTLVTVSS
VL: DVVMTQTPLSLPVTPGQPASISCKSSQSLLDSDGKTYLNWYLQKPGQSPQRLIYLVSKLDSGVPDRFSGSGSGTDFTLKISRVEAEDVGVYYCWQGTHFPWTFGQGTKVEIK
As for B1, the Kd was found to be 69.3 nM.

B2: hu94B2 HC4 + LC13 (antibody, V domains shown)
VH: EVQLVQSGAEVKKPGASVKVSCKASGYSLTGYTMNWVRQAPGQGLEWIGLISPYNGVTSYNQKFKGRATLTRDKSTSTAYLELSSLRSEDTAVYYCARQGAYWGQGTLVTVSS
VL: DIVMTQTPLSLPVTPGQPASISCKSSQSLLDSDGKTYLNWLLQKPGQSPQRLIYLVSKLDSGVPDRFSGSGSGTDFTLKISRVEAEDVGVYYCWQGTHFPWTFGQGTKVEIK
As to B2, the equilibrium dissociation constant (Kd) was 64.1 nM.

B3: hu94B2 HC3 + LC13 (antibody, V domains shown)
VH: EVQLVQSGAEVKKPGASVKVSCKASGYSLTGYTMNWVRQAPGQGLEWIGLISPYNGVTSYNQKFKGRATITVDKSTSTAYLELSSLRSEDTAVYYCARQGAYWGQGTLVTVSS
VL: DIVMTQTPLSLPVTPGQPASISCKSSQSLLDSDGKTYLNWLLQKPGQSPQRLIYLVSKLDSGVPDRFSGSGSGTDFTLKISRVEAEDVGVYYCWQGTHFPWTFGQGTKVEIK
As to B3, the Kd worked out at 3.8 nM.

B4: hu94B2 HC2 + LC13 (antibody, V domains shown)
VH: EVQLVQSGAEVKKPGASVKVSCKASGYSLTGYTMNWVRQAPGQGLEWIGLISPYNGVTSYNQKFKGRVTLTVDKSTSTAYLELSSLRSEDTAVYYCARQGAYWGQGTLVTVSS
VL: DIVMTQTPLSLPVTPGQPASISCKSSQSLLDSDGKTYLNWLLQKPGQSPQRLIYLVSKLDSGVPDRFSGSGSGTDFTLKISRVEAEDVGVYYCWQGTHFPWTFGQGTKVEIK
With B4, the dissociation constant Kd was 7.4 nM.

B5: hu94B2 HC6 + LC9 (antibody, V domains shown)
VH: EVQLVQSGAEVKKPGASVKVSCKASGYSLTGYTMNWVRQAPGQGLEWIGLISPYNGVTSYNQKFKGRVTITVDKSTSTAYLELSSLRSEDTAVYYCARQGAYWGQGTLVTVSS
VL: DVVMTQTPLSLPVTPGQPASISCKSSQSLLDSDGKTYLNWLLQKPGQSPQRLIYLVSKLDSGVPDRFSGSGSGTDFTLKISRVEAEDVGVYYCWQGTHFPWTFGQGTKVEIK
As for B5, the Kd was found to be 0.9 nM.

B6: hu94B2 HC6 + LC13 (antibody, V domains shown)
VH: EVQLVQSGAEVKKPGASVKVSCKASGYSLTGYTMNWVRQAPGQGLEWIGLISPYNGVTSYNQKFKGRVTITVDKSTSTAYLELSSLRSEDTAVYYCARQGAYWGQGTLVTVSS
VL: DIVMTQTPLSLPVTPGQPASISCKSSQSLLDSDGKTYLNWLLQKPGQSPQRLIYLVSKLDSGVPDRFSGSGSGTDFTLKISRVEAEDVGVYYCWQGTHFPWTFGQGTKVEIK
Consider B6, for which the Kd is 3 nM.

B7: hu94B2 HC4 + LC9 (antibody, V domains shown)
VH: EVQLVQSGAEVKKPGASVKVSCKASGYSLTGYTMNWVRQAPGQGLEWIGLISPYNGVTSYNQKFKGRATLTRDKSTSTAYLELSSLRSEDTAVYYCARQGAYWGQGTLVTVSS
VL: DVVMTQTPLSLPVTPGQPASISCKSSQSLLDSDGKTYLNWLLQKPGQSPQRLIYLVSKLDSGVPDRFSGSGSGTDFTLKISRVEAEDVGVYYCWQGTHFPWTFGQGTKVEIK
B7: the Kd is 61.9 nM.

B8: hu94B2 HC3 + LC9 (antibody, V domains shown)
VH: EVQLVQSGAEVKKPGASVKVSCKASGYSLTGYTMNWVRQAPGQGLEWIGLISPYNGVTSYNQKFKGRATITVDKSTSTAYLELSSLRSEDTAVYYCARQGAYWGQGTLVTVSS
VL: DVVMTQTPLSLPVTPGQPASISCKSSQSLLDSDGKTYLNWLLQKPGQSPQRLIYLVSKLDSGVPDRFSGSGSGTDFTLKISRVEAEDVGVYYCWQGTHFPWTFGQGTKVEIK
B8: the Kd is 2 nM.

B9: hu94B2 HC1 + LC15 (antibody, V domains shown)
VH: EVQLVQSGAEVKKPGASVKVSCKASGYSLTGYTMNWVRQAPGQGLEWIGLISPYNGVTSYNQKFKGRATLTVDKSTSTAYLELSSLRSEDTAVYYCARQGAYWGQGTLVTVSS
VL: DIVMTQTPLSLPVTPGQPASISCKSSQSLLDSDGKTYLNWYLQKPGQSPQRLIYLVSKLDSGVPDRFSGSGSGTDFTLKISRVEAEDVGVYYCWQGTHFPWTFGQGTKVEIK
With B9, the Kd amounted to 104 nM.

B10: hu94B2 HC5 + LC13 (antibody, V domains shown)
VH: EVQLVQSGAEVKKPGASVKVSCKASGYSLTGYTMNWVRQAPGQGLEWIGLISPYNGVTSYNQKFKGRATLTVDTSTSTAYLELSSLRSEDTAVYYCARQGAYWGQGTLVTVSS
VL: DIVMTQTPLSLPVTPGQPASISCKSSQSLLDSDGKTYLNWLLQKPGQSPQRLIYLVSKLDSGVPDRFSGSGSGTDFTLKISRVEAEDVGVYYCWQGTHFPWTFGQGTKVEIK
As to B10, the Kd was 4 nM.

B11: hu94B2 HC6 + LC11 (antibody, V domains shown)
VH: EVQLVQSGAEVKKPGASVKVSCKASGYSLTGYTMNWVRQAPGQGLEWIGLISPYNGVTSYNQKFKGRVTITVDKSTSTAYLELSSLRSEDTAVYYCARQGAYWGQGTLVTVSS
VL: DVVMTQTPLSLPVTPGQPASISCKSSQSLLDSDGKTYLNWYLQKPGQSPQRLIYLVSKLDSGVPDRFSGSGSGTDFTLKISRVEAEDVGVYYCWQGTHFPWTFGQGTKVEIK
On to B11, for which the Kd was determined as 70.1 nM.

B12: hu94B2 HC3 + LC15 (antibody, V domains shown)
VH: EVQLVQSGAEVKKPGASVKVSCKASGYSLTGYTMNWVRQAPGQGLEWIGLISPYNGVTSYNQKFKGRATITVDKSTSTAYLELSSLRSEDTAVYYCARQGAYWGQGTLVTVSS
VL: DIVMTQTPLSLPVTPGQPASISCKSSQSLLDSDGKTYLNWYLQKPGQSPQRLIYLVSKLDSGVPDRFSGSGSGTDFTLKISRVEAEDVGVYYCWQGTHFPWTFGQGTKVEIK
As for B12, the Kd was 64.1 nM.

B13: hu94B2 HC2 + LC15 (antibody, V domains shown)
VH: EVQLVQSGAEVKKPGASVKVSCKASGYSLTGYTMNWVRQAPGQGLEWIGLISPYNGVTSYNQKFKGRVTLTVDKSTSTAYLELSSLRSEDTAVYYCARQGAYWGQGTLVTVSS
VL: DIVMTQTPLSLPVTPGQPASISCKSSQSLLDSDGKTYLNWYLQKPGQSPQRLIYLVSKLDSGVPDRFSGSGSGTDFTLKISRVEAEDVGVYYCWQGTHFPWTFGQGTKVEIK
Consider B13, for which the Kd came out at 99.6 nM.

B14: hu94B2 HC2 + LC9 (antibody, V domains shown)
VH: EVQLVQSGAEVKKPGASVKVSCKASGYSLTGYTMNWVRQAPGQGLEWIGLISPYNGVTSYNQKFKGRVTLTVDKSTSTAYLELSSLRSEDTAVYYCARQGAYWGQGTLVTVSS
VL: DVVMTQTPLSLPVTPGQPASISCKSSQSLLDSDGKTYLNWLLQKPGQSPQRLIYLVSKLDSGVPDRFSGSGSGTDFTLKISRVEAEDVGVYYCWQGTHFPWTFGQGTKVEIK
Consider B14, for which the Kd is 5.7 nM.

B15: hu94B2 HC5 + LC9 (antibody, V domains shown)
VH: EVQLVQSGAEVKKPGASVKVSCKASGYSLTGYTMNWVRQAPGQGLEWIGLISPYNGVTSYNQKFKGRATLTVDTSTSTAYLELSSLRSEDTAVYYCARQGAYWGQGTLVTVSS
VL: DVVMTQTPLSLPVTPGQPASISCKSSQSLLDSDGKTYLNWLLQKPGQSPQRLIYLVSKLDSGVPDRFSGSGSGTDFTLKISRVEAEDVGVYYCWQGTHFPWTFGQGTKVEIK
For the molecule B15, the dissociation constant (Kd) came to 2.7 nM.

B16: hu94B2 HC2 + LC11 (antibody, V domains shown)
VH: EVQLVQSGAEVKKPGASVKVSCKASGYSLTGYTMNWVRQAPGQGLEWIGLISPYNGVTSYNQKFKGRVTLTVDKSTSTAYLELSSLRSEDTAVYYCARQGAYWGQGTLVTVSS
VL: DVVMTQTPLSLPVTPGQPASISCKSSQSLLDSDGKTYLNWYLQKPGQSPQRLIYLVSKLDSGVPDRFSGSGSGTDFTLKISRVEAEDVGVYYCWQGTHFPWTFGQGTKVEIK
Take B16: the Kd was 89.6 nM.

B17: hu94B2 HC1 + LC11 (antibody, V domains shown)
VH: EVQLVQSGAEVKKPGASVKVSCKASGYSLTGYTMNWVRQAPGQGLEWIGLISPYNGVTSYNQKFKGRATLTVDKSTSTAYLELSSLRSEDTAVYYCARQGAYWGQGTLVTVSS
VL: DVVMTQTPLSLPVTPGQPASISCKSSQSLLDSDGKTYLNWYLQKPGQSPQRLIYLVSKLDSGVPDRFSGSGSGTDFTLKISRVEAEDVGVYYCWQGTHFPWTFGQGTKVEIK
In the case of B17, the Kd was determined as 91.5 nM.

B18: hu94B2 HC5 + LC11 (antibody, V domains shown)
VH: EVQLVQSGAEVKKPGASVKVSCKASGYSLTGYTMNWVRQAPGQGLEWIGLISPYNGVTSYNQKFKGRATLTVDTSTSTAYLELSSLRSEDTAVYYCARQGAYWGQGTLVTVSS
VL: DVVMTQTPLSLPVTPGQPASISCKSSQSLLDSDGKTYLNWYLQKPGQSPQRLIYLVSKLDSGVPDRFSGSGSGTDFTLKISRVEAEDVGVYYCWQGTHFPWTFGQGTKVEIK
Regarding B18, the Kd is 62.6 nM.

B19: hu94B2 HC5 + LC15 (antibody, V domains shown)
VH: EVQLVQSGAEVKKPGASVKVSCKASGYSLTGYTMNWVRQAPGQGLEWIGLISPYNGVTSYNQKFKGRATLTVDTSTSTAYLELSSLRSEDTAVYYCARQGAYWGQGTLVTVSS
VL: DIVMTQTPLSLPVTPGQPASISCKSSQSLLDSDGKTYLNWYLQKPGQSPQRLIYLVSKLDSGVPDRFSGSGSGTDFTLKISRVEAEDVGVYYCWQGTHFPWTFGQGTKVEIK
Take B19: the Kd amounted to 72.6 nM.
